In US20180346889, “DNA POLYMERASE VARIANT” (KYUSHU UNIVERSITY, NATIONAL UNIVERSITY CORPORATION, published 2018):
Substitutions are numbered along the chain they refer to.

Key:
[1] = molecular target: T1, Taq58 (TaqLF P685S Y686R E687K) (Thermus aquaticus, UniProt P19821 SEQ:1-544); assay: EMSA; apparent; shifted band from 25 nM; 20 mM Tris-HCl pH 8.8, 10 mM NaCl, 5 mM MgCl2, 40 C; details: label: 5'-32P on d27; primer-template, 27 bp duplex with 22 nt 5' overhang on 49N
T1 chain: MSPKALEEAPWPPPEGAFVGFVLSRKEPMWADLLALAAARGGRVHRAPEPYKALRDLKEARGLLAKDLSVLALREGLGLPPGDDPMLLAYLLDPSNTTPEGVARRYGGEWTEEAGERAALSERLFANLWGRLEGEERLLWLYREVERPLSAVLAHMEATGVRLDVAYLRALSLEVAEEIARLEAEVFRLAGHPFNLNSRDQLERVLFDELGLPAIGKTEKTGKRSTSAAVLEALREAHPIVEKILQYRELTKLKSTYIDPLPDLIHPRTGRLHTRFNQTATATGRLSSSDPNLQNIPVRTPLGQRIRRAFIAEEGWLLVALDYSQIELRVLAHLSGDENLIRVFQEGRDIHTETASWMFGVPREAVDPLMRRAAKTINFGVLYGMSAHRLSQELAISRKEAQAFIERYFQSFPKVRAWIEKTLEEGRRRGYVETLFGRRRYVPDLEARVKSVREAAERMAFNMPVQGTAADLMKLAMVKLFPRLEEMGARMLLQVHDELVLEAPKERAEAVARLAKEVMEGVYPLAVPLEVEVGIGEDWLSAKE
Procedure: (§1) The affinity of variant Taq polymerases and primed DNAs was examined using a gel shift assay. The measurement was carried out in the following manner.
(§2) First, DNA in which a 27 nt of a single-stranded DNA (d27, SEQ ID NO: 50) radioactive-labeled with ³²P at 5′-terminal was annealed to a non-labeled 49 nt of a single-stranded DNA (49N, SEQ ID NO: 51) was used as a substrate DNA for the measurement of DNA binding ability. DNA polymerase proteins were added to 10 μl of Solution E [20 mM Tris-HCl, pH 8.8, 10 mM NaCl, 5 mM MgCl₂, 14 mM 2-mercaptoethanol, 0.1 mg/ml BSA and 5% (v/v) glycerol] containing 2 nM substrate DNA so as to have concentration of from 0.6 to 400 nM, and the mixture was held at 40° C. for 5 minutes. A liquid DNA-enzyme mixture was subjected to 1% agarose gel and electrophoresed in a 0.1×TAE solution [4 mM Tris base, 2 mM acetic acid and 0.1 mM EDTA]. After the termination of electrophoresis, the gel was dried, and the dried gel was exposed to an imaging plate. Typhoon TRIO+ was used to detect a labeled DNA.

[2] = molecular target: T2, Taq59 (TaqLF P685R Y686R E687R) (Thermus aquaticus, UniProt P19821 SEQ:1-544); assay: EMSA; apparent; clear shift at 25 nM, two-step shift at 400 nM; 20 mM Tris-HCl pH 8.8, 10 mM NaCl, 5 mM MgCl2, 40 C; details: label: 5'-32P on d27; primer-template, 27 bp duplex with 22 nt 5' overhang on 49N
T2 chain: T1 chain with S397R, K399R
Procedure: as §1, §2

B1: primed DNA d27/49N (dsDNA)
DNA 1: AGCTATGACCATGATTACGAATTGCTT
DNA 2: AGCTACCATGCCTGCACGAATTAAGCAATTCGTAATCATGGTCATAGCT
- Kd [1]: 100 nM
- Kd [2]: 40 nM
